Assay results from patent US20180207191A1, “HUMAN CANCER MICRO-RNA EXPRESSION PROFILES PREDICTIVE OF CHEMO-RESPONSE” (H. LEE MOFFITT CANCER CENTER AND RESEARCH INSTITUTE, INC., priority 2010, published 2018).

B1: Pre-miR-367: precursor of miR-367 purchased from Ambion; exemplified pre-miR367 precursor sequence SEQ ID NO:158 (nucleic acid)
chain: CCAUUACUGUUGCUAAUAUGCAACUCUGUUGAAUAUAAAUUGGAAUUGCACUUUAGCAAUGGUGAUGG
modifications: listed as RNA, chemistry not given here

What was measured:
renal cell line TK-10 = settings: TK-10 renal cell line; publicly available GI50; cited from earlier work
renal cell line 786-0 = settings: 786-0 renal cell line; publicly available GI50; cited from earlier work
786-0 cells = assay: Growth inhibition assay (CellTiter-Glo), topotecan after miR-367 modulation; type: cell-based, human; settings: 786-0 cells (topotecan sensitive, high miR-367), topotecan 48 hours, 24 hours after transfection
Protocol: (§1) miR-367 Transfection. Pre-miR-367 and Anti-miR-367 were purchased from Ambion. Log-phase cells (˜60% confluency) were transfected with 6.25 μM Pre-miR-367 or Anti-miR-367 using siPORT NeoFX transfection reagent (Ambion) at a final concentration of 50 nM according to manufacturer's instructions. Controls included transfection of a non-targeting miRNA (Negative Control #1).
(§2) Growth inhibition assay. Topotecan, obtained from Sequola Research Products Ltd, was dissolved in DMSO (Sigma) at concentration of 20 mM and stored at −20° C. Cells were seeded in 96-well plates (Nunc) at a density of 5×10^5 cells per ml and incubated overnight at 37° C. Cells were incubated with the indicated concentrations of topotecan for 48 hours and cell viability was analyzed using the CellTiter-Glo™ luminescent cell viability assay kit (Promega). Luminescence was recorded using Wallac Victor^2™ 1420 Multilabel Counter (Perkin Elmer Life Sciences). Wells containing medium without cells were used to obtain background luminescence. All experimental wells and controls were set up in triplet.
(§3) The effects of miR-367 modulation on topotecan-induced cell death and growth arrest were evaluated using the CellTiter-Glo' luminescent cell viability assay (FIG. 2). Twenty-four hours after transfection, cells were subject to 48 hours of topotecan treatment.

TK-10 cells = assay: as above; type: cell-based, human; settings: TK-10 cells (topotecan resistant, low miR-367), topotecan 48 hours, 24 hours after transfection
Protocol: as §1, §2, §3

miR-367 [1] = assay: Real-time quantitative RT-PCR of miR-367 after transfection, 786-0 cells; type: cell-based, human; settings: 50 nM final, QPCR normalized to RNU44
Protocol: as §1
(§4) Real-time Quantitative RT-PCR of miRNA. Real-time Quantitative RT-PCR was used to validate successful miRNA transfection. TaqMan®MicroRNA Reverse Transcription kit (Applied Biosystems) was used to convert specific miRNAs to cDNA. RNU44 was used as control for quantification. Per Applied Biosystems' protocol, real-time PCR was performed adding 1.34 μl of each completed RT reaction to target TaqMan microRNA Assay reaction with TaqMan Universal PCR Master Mix (final reaction volume equal 20 μl). Samples (786-0 and TK-10 cell lines transfected with Pre-miR-367 precursor, Anti-miR-367 inhibitor, and Anti-miR-inhibitor Negative Control #1) were evaluated in triplicate and run on the Applied Biosystems 7900HT Fast Real-Time PCR System. Assay data was analyzed using SDS 2.2.2 software.

miR-367 [2] = assay: Real-time quantitative RT-PCR of miR-367 after transfection, TK-10 cells; type: cell-based, human; settings: 50 nM final, QPCR normalized to RNU44
Protocol: as §1, §4

| Molecule | log10 GI50 (renal cell line TK-10) | log10 GI50 (renal cell line 786-0) | change in sensitivity to topotecan-induced cell death and growth arrest vs non-targeting control (786-0 cells) | change in sensitivity to topotecan-induced cell death and growth arrest vs non-targeting control (786-0 cells; listed as pre-miR-367) | change in sensitivity to topotecan-induced cell death and growth arrest vs non-targeting control (TK-10 cells) | change in sensitivity to topotecan-induced cell death and growth arrest vs non-targeting control (TK-10 cells; listed as miR-367 precursor) | change in sensitivity to topotecan-induced cell death and growth arrest vs non-targeting control (TK-10 cells; listed as pre-miR-367) | change in sensitivity to topotecan-induced cell death and growth arrest vs non-targeting control (TK-10 cells; listed as precursor to miR-367) | miR-367 levels compared to non-targeting miRNA control (miR-367 [1]) | miR-367 levels compared to non-targeting miRNA control (miR-367 [2]) |
| --- | --- | --- | --- | --- | --- | --- | --- | --- | --- | --- |
| CC[C@@]1(O)C(=O)OCc2c1cc1n(c2=O)Cc2cc3c(CN(C)C)c(O)ccc3nc2-1 [Topotecan] | −5.279 | −7.903 | – | – | – | – | – | – | – | – |
| B1 | – | – | No differences in topotecan sensitivity | increase in topotecan-induced cell death | significantly increased cell death and growth arrest induced by topotecan | increased sensitivity to topotecan | increase in topotecan-induced cell death | significant increase in topotecan-induced cell death and growth arrest | increase | increase |
